Measurements: patent US20090130192A1 (UNIVERSITY OF MANCHESTER, published 2009)
Values belong to the binder of their own block, whether it stands above or below them.

Columns and labels:
VEGF164 = test: solid-phase binding assay, growth factor coated at 2 µg/ml, opticin titrated, detected with opticin-specific antibody; apparent Kd
[1] = biological target: basic fibroblast growth factor (FGF-2); test: as above
[2] = biological target: basic fibroblast growth factor (FGF-2); test: cell-based or functional assay
[3] = biological target: vascular endothelial growth factor (VEGF), isoform not stated; test: cell-based or functional assay
[4] = biological target: T1, full-length recombinant opticin (bovine (stated in Example 6 only; not …, UniProt P58874 20-321); test: solid-phase binding assay, receptor coated at 2 µg/ml, opticin titrated, detected with opticin-specific antibody; apparent Kd
T1 construct: mature; also called recombinant bovine opticin; class III SLRP opticin
T1 sequence (looked up): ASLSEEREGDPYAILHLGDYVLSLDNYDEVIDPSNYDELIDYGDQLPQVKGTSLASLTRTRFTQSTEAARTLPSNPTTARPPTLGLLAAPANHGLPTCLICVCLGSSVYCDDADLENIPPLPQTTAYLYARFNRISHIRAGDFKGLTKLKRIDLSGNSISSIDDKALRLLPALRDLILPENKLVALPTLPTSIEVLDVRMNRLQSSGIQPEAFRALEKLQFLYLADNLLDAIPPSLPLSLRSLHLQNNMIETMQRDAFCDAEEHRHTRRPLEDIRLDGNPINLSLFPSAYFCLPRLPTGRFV

Sequence of basic fibroblast growth factor (FGF-2) (P09038 143-288): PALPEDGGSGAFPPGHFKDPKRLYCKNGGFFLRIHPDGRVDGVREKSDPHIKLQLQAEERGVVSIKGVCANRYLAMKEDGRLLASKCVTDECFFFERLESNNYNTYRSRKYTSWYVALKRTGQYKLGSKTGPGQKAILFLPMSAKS

Kd (VEGF164): 42 nM | Kd [1]: 34 nM | inhibition of FGF-2 induced BAEC proliferation [2]: > 95% | reduction of FGF-2-induced BAEC migration, 10 µg/ml opticin [2]: 86% | reduction of FGF-2-induced BAEC sprouting [2]: 73% | inhibition of VEGF induced BAEC proliferation [3]: > 90% | reduction of VEGF-induced BAEC migration, 10 µg/ml opticin [3]: 53% | reduction of VEGF-induced BAEC sprouting [3]: 70%
B1: full-length recombinant opticin (protein, UniProt P58874 20-321, looked up)
chain: T1 sequence (looked up)

Kd [4]: 21 nM
B2: VEGF-R1, soluble extracellular domain (receptor)
chain: SKLKDPELSLKGTQHIMQAGQTLHLQCRGEAAHKWSLPEMVSKESERLSITKSACGRNGKQFCSTLTLNTAQANHTGFYSCKYLAVPTSKKKETESAIYIFISDTGRPFVEMYSEIPEIIHMTEGRELVIPCRVTSPNITVTLKKFPLDTLIPDGKRIIWDSRKGFIISNATYKEIGLLTCEATVNGHLYKTNYLTHRQTNTIIDVQISTPRPVKLLRGHTLVLNCTATTPLNTRVQMTWSYPDEKNKRASVRRRIDQSNSHANIFYSVLTIDKMQNKDKGLYTCRVRSGPSFKSVNTSVHIYDKAFITVKHRKQQVLETVAGKRSYRLSMKVKAFPSPEVVWLKDGLPATEKSARYLTRGYSLIIKDVTEEDAGNYTILLSIKQSNVFKNLTATLIVNVKPQIYEKAVSSFPDPALYPLGSRQILTCTAYGIPQPTIKWFWHPCNHNHSEARCDFCSNNEESFILDADSNMGNRIESITQRMAIIEGKNKMASTLVVADSRISGIYICIASNKVGTVGRNISFYITDVPNGFHVNLEKMPTEGEDLKLSCTVNKFLYRDVTWILLRTVNNRTMHYSISKQKMAITKEHSITLNLTIMNVSLQDSGTYACRARNVYTGEEILQKKEITIRDQEAPYLLRNLSDHTVAISSSTTLDCHANGVPEPQITWFKNNHKIQQEPGIILGPGSSTLFIERVTEEDEGVYHCKATNQKGSVESSAYLTVQGTSDKSNLE
